What was measured:
Test in all cases: cell-based or functional assay
[1] = target: T1, PCBD1-nanoluc-alfa-tag-fusion
T1 chain: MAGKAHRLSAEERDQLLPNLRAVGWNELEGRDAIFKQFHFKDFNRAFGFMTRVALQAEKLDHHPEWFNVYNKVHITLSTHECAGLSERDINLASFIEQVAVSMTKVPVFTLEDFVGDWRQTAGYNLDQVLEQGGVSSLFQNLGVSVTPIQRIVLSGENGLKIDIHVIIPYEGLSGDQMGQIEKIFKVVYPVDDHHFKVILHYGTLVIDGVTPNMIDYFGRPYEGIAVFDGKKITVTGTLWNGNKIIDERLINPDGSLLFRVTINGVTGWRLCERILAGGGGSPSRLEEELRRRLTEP

[2] = target: T2, CSTB-nanoluc-alfa-tag-fusion
T2 chain: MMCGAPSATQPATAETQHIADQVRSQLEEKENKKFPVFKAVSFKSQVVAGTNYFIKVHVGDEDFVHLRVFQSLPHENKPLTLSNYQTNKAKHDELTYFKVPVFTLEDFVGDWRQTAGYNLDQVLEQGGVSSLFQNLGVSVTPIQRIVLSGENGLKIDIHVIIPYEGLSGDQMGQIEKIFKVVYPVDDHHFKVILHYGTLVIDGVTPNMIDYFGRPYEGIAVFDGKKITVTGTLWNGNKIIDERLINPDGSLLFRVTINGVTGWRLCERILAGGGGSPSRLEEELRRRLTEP

[3] = target: T3, SYNGAP1-nanoluc-alfa-tag-fusion
T3 chain: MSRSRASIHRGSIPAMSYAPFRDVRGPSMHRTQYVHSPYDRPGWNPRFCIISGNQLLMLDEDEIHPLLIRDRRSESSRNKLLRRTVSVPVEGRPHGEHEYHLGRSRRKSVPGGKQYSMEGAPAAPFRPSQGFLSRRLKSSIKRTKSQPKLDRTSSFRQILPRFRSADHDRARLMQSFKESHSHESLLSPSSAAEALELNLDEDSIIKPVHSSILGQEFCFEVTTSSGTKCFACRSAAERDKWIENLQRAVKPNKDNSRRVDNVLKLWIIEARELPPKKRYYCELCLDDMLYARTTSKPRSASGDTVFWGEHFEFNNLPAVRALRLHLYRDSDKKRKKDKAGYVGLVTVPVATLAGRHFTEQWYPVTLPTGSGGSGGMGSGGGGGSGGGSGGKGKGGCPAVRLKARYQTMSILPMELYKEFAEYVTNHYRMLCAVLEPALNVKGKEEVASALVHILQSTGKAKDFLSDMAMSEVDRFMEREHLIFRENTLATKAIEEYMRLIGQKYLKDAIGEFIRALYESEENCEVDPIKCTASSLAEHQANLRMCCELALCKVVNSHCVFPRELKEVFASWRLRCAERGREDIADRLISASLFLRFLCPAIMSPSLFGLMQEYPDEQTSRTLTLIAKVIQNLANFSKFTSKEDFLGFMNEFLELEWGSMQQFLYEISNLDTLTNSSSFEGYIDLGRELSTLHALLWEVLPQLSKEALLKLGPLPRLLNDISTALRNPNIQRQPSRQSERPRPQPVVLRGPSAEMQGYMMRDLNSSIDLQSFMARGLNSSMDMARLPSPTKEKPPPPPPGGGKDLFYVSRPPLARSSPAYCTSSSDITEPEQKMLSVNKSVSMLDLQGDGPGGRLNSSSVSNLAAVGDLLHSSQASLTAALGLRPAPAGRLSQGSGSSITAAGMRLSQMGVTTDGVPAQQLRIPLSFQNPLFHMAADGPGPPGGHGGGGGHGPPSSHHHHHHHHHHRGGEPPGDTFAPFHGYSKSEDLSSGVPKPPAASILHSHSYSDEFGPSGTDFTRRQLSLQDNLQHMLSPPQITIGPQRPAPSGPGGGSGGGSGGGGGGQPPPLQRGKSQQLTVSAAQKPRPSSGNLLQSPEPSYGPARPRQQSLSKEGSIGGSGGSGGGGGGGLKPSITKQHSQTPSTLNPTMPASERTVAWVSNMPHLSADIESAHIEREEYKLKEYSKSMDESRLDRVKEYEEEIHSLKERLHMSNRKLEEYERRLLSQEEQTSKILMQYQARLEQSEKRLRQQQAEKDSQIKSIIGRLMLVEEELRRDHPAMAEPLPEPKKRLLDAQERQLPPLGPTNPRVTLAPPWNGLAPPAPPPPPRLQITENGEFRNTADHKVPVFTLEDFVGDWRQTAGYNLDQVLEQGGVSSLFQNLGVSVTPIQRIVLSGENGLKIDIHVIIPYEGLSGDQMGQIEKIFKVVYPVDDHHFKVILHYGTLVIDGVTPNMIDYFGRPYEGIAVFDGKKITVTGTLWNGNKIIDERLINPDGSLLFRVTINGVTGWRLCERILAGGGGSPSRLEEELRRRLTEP

[4] = target: T4, PYDC2-nanoluc-alfa-tag-fusion
T4 chain: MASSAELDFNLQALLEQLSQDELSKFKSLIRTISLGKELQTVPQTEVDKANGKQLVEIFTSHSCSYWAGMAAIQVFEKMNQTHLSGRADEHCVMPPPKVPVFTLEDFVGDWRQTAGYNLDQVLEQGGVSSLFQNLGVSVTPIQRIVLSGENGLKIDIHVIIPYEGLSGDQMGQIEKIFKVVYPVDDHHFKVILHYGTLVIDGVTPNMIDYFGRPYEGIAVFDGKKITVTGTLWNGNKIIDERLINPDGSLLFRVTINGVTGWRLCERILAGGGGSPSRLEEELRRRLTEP

[5] = target: Shank3-nanoluc-alfa-tag-fusion (Homo sapiens (Human), UniProt Q9BYB0 76-1806)

B1: FireflyLuciferase-P2A-a_alfatag_nano-Cezanne (other)
chain: MEDAKNIKKGPAPFYPLEDGTAGEQLHKAMKRYALVPGTIAFTDAHIEVDITYAEYFEMSVRLAEAMKRYGLNTNHRIVVCSENSLQFFMPVLGALFIGVAVAPANDIYNERELLNSMGISQPTVVFVSKKGLQKILNVQKKLPIIQKIIIMDSKTDYQGFQSMYTFVTSHLPPGFNEYDFVPESFDRDKTIALIMNSSGSTGLPKGVALPHRTACVRFSHARDPIFGNQIIPDTAILSVVPFHHGFGMFTTLGYLICGFRVVLMYRFEEELFLRSLQDYKIQSALLVPTLFSFFAKSTLIDKYDLSNLHEIASGGAPLSKEVGEAVAKRFHLPGIRQGYGLTETTSAILITPEGDDKPGAVGKVVPFFEAKVVDLDTGKTLGVNQRGELCVRGPMIMSGYVNNPEATNALIDKDGWLHSGDIAYWDEDEHFFIVDRLKSLIKYKGYQVAPAELESILLQHPNIFDAGVAGLPDDDAGELPAAVVVLEHGKTMTEKEIVDYVASQVTTAKKLRGGVVFVDEVPKGLTGKLDARKIREILIKAKKGGKIAVTRLKGSGATNFSLLKQAGDVEENPGPRSGTGSSGEVQLQESGGGLVQPGGSLRLSCTASGVTISALNAMAMGWYRQAPGERRVMVAAVSERGNAMYRESVQGRFTVTRDFTNKMVSLQMDNLKPEDTAVYYCHVLEDRVDSFHDYWGQGTQVTVSSGAPGSGPPSFSEGSGGSRTPEKGFSDREPTRPPRPILQRQDDIVQEKRLSRGISHASSSIVSLARSHVSSNGGGGGSNEHPLEMPICAFQLPDLTVYNEDFRSFIERDLIEQSMLVALEQAGRLNWWVSVDPTSQRLLPLATTGDGNCLLHAASLGMWGFHDRDLMLRKALYALMEKGVEKEALKRRWRWQQTQQNKESGLVYTEDEWQKEWNELIKLASSEPRMHLGTNGANCGGVESSEEPVYESLEEFHVFVLAHVLRRPIVVVADTMLRDSGGEAFAPIPFGGIYLPLEVPASQCHRSPLVLAYDQAHFSALVSMEQKENTKEQAVIPLTDSEYKLLPLHFAVDPGKGWEWGKDDSDNVRLASVILSLEVKLHLLHSYMNVKWIPLSSDAQAPLAQ
- fold increase in PCBD1 protein expression (NLuc signal normalised to firefly luciferase signal) [1]: 1.13 fold
- fold increase in CSTB protein expression (NLuc signal normalised to firefly luciferase signal) [2]: 1.61 fold
- fold increase in SYNGAP1 protein expression relative to the control (NLuc signal normalised to firefly luciferase signal) [3]: 3.1 fold
- fold increase in PYDC2 protein expression (NLuc signal normalised to firefly luciferase signal) [4]: 2.64 fold
- fold increase in SHANK3 protein expression relative to the control (NLuc signal normalised to firefly luciferase signal) [5]: 2.4 fold

Reference: patent US20240025984A1 (FLUX THERAPEUTICS, published 2024)
